Assays:
[1] = molecular target: T1, human CD3ε/δ (ACRO systems, CDD-H52W1) (human, UniProt P07766 23-126; P04234 22-105); assay: serum-stability ELISA, Day 6 vs Day 0
T1 construct: bought recombinant heterodimer; also called human CD3 epsilon/delta; Human CD3ε/CD3δ
Description: (§1) The samples to be tested were centrifuged at 4° C. at 12000 rpm for 30 minutes to remove the precipitate. 200 μl of each sample to be tested (0.5 mg/ml) was collected in a 1.5 ml Eppendorf tube. An equal volume of human serum (GEMINI, H2OYOOK) was added, mixed thoroughly, and the mixture was incubated in a 37° C. constant temperature CO₂ incubator. For a total of 10 days, 40 μl samples was aspirated every day and stored at −20° C.
(§2) Enzyme-linked immunosorbent assay (ELISA) was used to test the bispecific antibodies' binding to human CEA and human CD3 epsilon/delta antigen. The steps are as follows: the antigen human CD3ε/δ (ACRO systems, CDD-H52W1) and the recombinant tumor antigen human CEA (CEACAM-5/CD66e, ACRO systems, CE5-H5226) were diluted to 1 μg/ml with PBS, and then added to the 96-well plate at 100 μl per well. The wells were coated overnight at 4° C. After washing 3 times with 0.05% PBST, 200 μl 5% skimmed milk powder was added to each well and incubated at 37° C. for 2 h. After washing 3 times with 0.05% PBST, 100 μl primary antibody sample (10 μg/ml) was added to each well, and incubated at 37° C. for 2 h. After washing 3 times with 0.05% PBST, 100 μl (1:6000) diluted secondary antibody goat anti-human Fc-HRP (sigma, A2170) was added to each well, incubated at room temperature for 1 h. After washing 8 times with 0.05% PBST, 50 μl TMB color developing solution was added to each well, and incubated at room temperature for 10-15 min. 50 μl 1 mM HCl was added to each well to stop the color development. 450 nm Absorbance (OD) was read.
(§3) The binding of antibodies to antigen was calculated according to the following formula: Binding (%)=[(ODdayn−ODb)/(ODday0−ODb)]×100%. ODdayn: experimental well (the protein was stored in the serum for n days); ODday0: control well (the protein was not stored in the serum); ODb: blank well (no primary antibody added).

[2] = molecular target: T1, human CD3ε/δ (ACRO systems, CDD-H52W1); assay: serum-stability ELISA, Day 10 vs Day 0
Description: as §1, §2, §3

[3] = molecular target: T1, human CD3ε/δ (ACRO systems, CDD-H52W1); assay: serum-stability ELISA, Day 2 vs Day 0
Description: as §1, §2, §3

[4] = molecular target: T1, human CD3ε/δ (ACRO systems, CDD-H52W1); assay: serum-stability ELISA, Day 9 vs Day 0
Description: as §1, §2, §3

[5] = molecular target: T1, human CD3ε/δ (ACRO systems, CDD-H52W1); assay: serum-stability ELISA, Day 5 vs Day 0
Description: as §1, §2, §3

[6] = molecular target: T1, human CD3ε/δ (ACRO systems, CDD-H52W1); assay: serum-stability ELISA, Day 7 vs Day 0
Description: as §1, §2, §3

[7] = molecular target: T1, human CD3ε/δ (ACRO systems, CDD-H52W1); assay: serum-stability ELISA, Day 1 vs Day 0
Description: as §1, §2, §3

[8] = molecular target: T1, human CD3ε/δ (ACRO systems, CDD-H52W1); assay: serum-stability ELISA, Day 0 (reference)

| Binding % [1] [%] | Binding % [2] [%] | Binding % [3] [%] | Binding % [4] [%] | Binding % [5] [%] | Binding % [6] [%] | Binding % [7] [%] | Binding % [8] [%] | Binder |
| --- | --- | --- | --- | --- | --- | --- | --- | --- |
| 97.4 | 95.7 | 96.1 | 98.8 | 100 | 95.9 | 95.7 | 100 | 208 (Fab (Heavy)-Knob+Fab (Light)-Hole-CEA) (bispecific antibody, human IgG4 S228P, kappa, F234A L235A, two-chain format: VL-CL fused to hole Fc and VHH) heavy: EVKLLESGGGLVQPKGSLKLSCAASGFTFNTYAMNWVRQAPGKGLEWVARIRSKYNNYATYYADSVKDRFTISRDDSQSILYLQMNNLKTEDTAMYYCVRHGNFGNSYVSWFAYWGQGTLVTVSSASTKGPSVFPLAPCSRSTSESTAALGCLVKDYFPEPVTVSWNSGALTSGVHTFPAVLQSSGLYSLSSVVTVPSSSLGTKTYTCNVDHKPSNTKVDKRVESKYGPPCPPCPAPEAAGGPSVFLFPPKPKDTLMISRTPEVTCVVVDVSQEDPEVQFNWYVDGVEVHNAKTKPREEQFNSTYRVVSVLTVLHQDWLNGKEYKCKVSNKGLPSSIEKTISKAKGQPREPQVYTLPPCQEEMTKNQVSLWCLVKGFYPSDIAVEWESNGQPENNYKTTPPVLDSDGSFFLYSRLTVDKSRWQEGNVFSCSVMHEALHNHYTQKSLSLSL light: QAVVTQESALTTSPGETVTLTCRSSTGAVTTSNYANWVQEKPDHLFTGLIGGTNKRAPGVPARFSGSLIGDKAALTITGAQTEDEAIYFCALWYSNLWVFGGGTKVEIKRTVAAPSVFIFPPSDEQLKSGTASVVCLLNNFYPREAKVQWKVDNALQSGNSQESVTEQDSKDSTYSLSSTLTLSKADYEKHKVYACEVTHQGLSSPVTKSFNRGECESKYGPPCPPCPAPEAAGGPSVFLFPPKPKDTLMISRTPEVTCVVVDVSQEDPEVQFNWYVDGVEVHNAKTKPREEQFNSTYRVVSVLTVLHQDWLNGKEYKCKVSNKGLPSSIEKTISKAKGQPREPQVCTLPPSQEEMTKNQVSLSCAVKGFYPSDIAVEWESNGQPENNYKTTPPVLDSDGSFFLVSRLTVDKSRWQEGNVFSCSVMHEALHNRFTQKSLSLSLGGGGSGGGGSEVQLVESGGGFVQAGESLTLSCTSSTLTFTPYRMAWYRQAPGKQRDLVADISSGDGRTTNYADFAKGRFTISRDNIKNTVFLRMTNLKPEDTAVYYCNTFVSFVGIARSWGQGTQVTVSS |
| 105 | 107 | 103 | 108 | 108 | 109 | 102 | 100 | 209 (Fab (Light)-Knob-CEA+Fab (Heavy)-Hole) (bispecific antibody, human IgG4 S228P, kappa, F234A L235A, two-chain format: VL-CL fused to knob Fc and VHH) light: QAVVTQESALTTSPGETVTLTCRSSTGAVTTSNYANWVQEKPDHLFTGLIGGTNKRAPGVPARFSGSLIGDKAALTITGAQTEDEAIYFCALWYSNLWVFGGGTKVEIKRTVAAPSVFIFPPSDEQLKSGTASVVCLLNNFYPREAKVQWKVDNALQSGNSQESVTEQDSKDSTYSLSSTLTLSKADYEKHKVYACEVTHQGLSSPVTKSFNRGECESKYGPPCPPCPAPEAAGGPSVFLFPPKPKDTLMISRTPEVTCVVVDVSQEDPEVQFNWYVDGVEVHNAKTKPREEQFNSTYRVVSVLTVLHQDWLNGKEYKCKVSNKGLPSSIEKTISKAKGQPREPQVYTLPPCQEEMTKNQVSLWCLVKGFYPSDIAVEWESNGQPENNYKTTPPVLDSDGSFFLYSRLTVDKSRWQEGNVFSCSVMHEALHNHYTQKSLSLSLGGGGSGGGGSEVQLVESGGGFVQAGESLTLSCTSSTLTFTPYRMAWYRQAPGKQRDLVADISSGDGRTTNYADFAKGRFTISRDNIKNTVFLRMTNLKPEDTAVYYCNTFVSFVGIARSWGQGTQVTVSS heavy: EVKLLESGGGLVQPKGSLKLSCAASGFTFNTYAMNWVRQAPGKGLEWVARIRSKYNNYATYYADSVKDRFTISRDDSQSILYLQMNNLKTEDTAMYYCVRHGNFGNSYVSWFAYWGQGTLVTVSSASTKGPSVFPLAPCSRSTSESTAALGCLVKDYFPEPVTVSWNSGALTSGVHTFPAVLQSSGLYSLSSVVTVPSSSLGTKTYTCNVDHKPSNTKVDKRVESKYGPPCPPCPAPEAAGGPSVFLFPPKPKDTLMISRTPEVTCVVVDVSQEDPEVQFNWYVDGVEVHNAKTKPREEQFNSTYRVVSVLTVLHQDWLNGKEYKCKVSNKGLPSSIEKTISKAKGQPREPQVCTLPPSQEEMTKNQVSLSCAVKGFYPSDIAVEWESNGQPENNYKTTPPVLDSDGSFFLVSRLTVDKSRWQEGNVFSCSVMHEALHNRFTQKSLSLSL |

More lines, now with the values behind:

| Binder | Binding % [1] [%] | Binding % [2] [%] | Binding % [3] [%] | Binding % [4] [%] | Binding % [5] [%] | Binding % [6] [%] | Binding % [7] [%] | Binding % [8] [%] |
| --- | --- | --- | --- | --- | --- | --- | --- | --- |
| 205 (CEA-Fab-Knob-+Hole) (bispecific antibody, human IgG4 S228P, kappa, F234A L235A, VHH fused before VH of the heavy chain) heavy: EVQLVESGGGFVQAGESLTLSCTSSTLTFTPYRMAWYRQAPGKQRDLVADISSGDGRTTNYADFAKGRFTISRDNIKNTVFLRMTNLKPEDTAVYYCNTFVSFVGIARSWGQGTQVTVSSGGGGSGGGGSEVKLLESGGGLVQPKGSLKLSCAASGFTFNTYAMNWVRQAPGKGLEWVARIRSKYNNYATYYADSVKDRFTISRDDSQSILYLQMNNLKTEDTAMYYCVRHGNFGNSYVSWFAYWGQGTLVTVSSASTKGPSVFPLAPCSRSTSESTAALGCLVKDYFPEPVTVSWNSGALTSGVHTFPAVLQSSGLYSLSSVVTVPSSSLGTKTYTCNVDHKPSNTKVDKRVESKYGPPCPPCPAPEAAGGPSVFLFPPKPKDTLMISRTPEVTCVVVDVSQEDPEVQFNWYVDGVEVHNAKTKPREEQFNSTYRVVSVLTVLHQDWLNGKEYKCKVSNKGLPSSIEKTISKAKGQPREPQVYTLPPCQEEMTKNQVSLWCLVKGFYPSDIAVEWESNGQPENNYKTTPPVLDSDGSFFLYSRLTVDKSRWQEGNVFSCSVMHEALHNHYTQKSLSLSL ESKYGPPCPPCPAPEAAGGPSVFLFPPKPKDTLMISRTPEVTCVVVDVSQEDPEVQFNWYVDGVEVHNAKTKPREEQFNSTYRVVSVLTVLHQDWLNGKEYKCKVSNKGLPSSIEKTISKAKGQPREPQVCTLPPSQEEMTKNQVSLSCAVKGFYPSDIAVEWESNGQPENNYKTTPPVLDSDGSFFLVSRLTVDKSRWQEGNVFSCSVMHEALHNRFTQKSLSLSL light: QAVVTQESALTTSPGETVTLTCRSSTGAVTTSNYANWVQEKPDHLFTGLIGGTNKRAPGVPARFSGSLIGDKAALTITGAQTEDEAIYFCALWYSNLWVFGGGTKVEIKRTVAAPSVFIFPPSDEQLKSGTASVVCLLNNFYPREAKVQWKVDNALQSGNSQESVTEQDSKDSTYSLSSTLTLSKADYEKHKVYACEVTHQGLSSPVTKSFNRGEC | 100 | 105 | 99.3 | 105 | 117 | 105 | 96.5 | 100 |
| 206 (Knob+CEA-Fab-Hole) (bispecific antibody, human IgG4 S228P, kappa, F234A L235A, VHH fused before VH of the heavy chain) ESKYGPPCPPCPAPEAAGGPSVFLFPPKPKDTLMISRTPEVTCVVVDVSQEDPEVQFNWYVDGVEVHNAKTKPREEQFNSTYRVVSVLTVLHQDWLNGKEYKCKVSNKGLPSSIEKTISKAKGQPREPQVYTLPPCQEEMTKNQVSLWCLVKGFYPSDIAVEWESNGQPENNYKTTPPVLDSDGSFFLYSRLTVDKSRWQEGNVFSCSVMHEALHNHYTQKSLSLSL heavy: EVQLVESGGGFVQAGESLTLSCTSSTLTFTPYRMAWYRQAPGKQRDLVADISSGDGRTTNYADFAKGRFTISRDNIKNTVFLRMTNLKPEDTAVYYCNTFVSFVGIARSWGQGTQVTVSSGGGGSGGGGSEVKLLESGGGLVQPKGSLKLSCAASGFTFNTYAMNWVRQAPGKGLEWVARIRSKYNNYATYYADSVKDRFTISRDDSQSILYLQMNNLKTEDTAMYYCVRHGNFGNSYVSWFAYWGQGTLVTVSSASTKGPSVFPLAPCSRSTSESTAALGCLVKDYFPEPVTVSWNSGALTSGVHTFPAVLQSSGLYSLSSVVTVPSSSLGTKTYTCNVDHKPSNTKVDKRVESKYGPPCPPCPAPEAAGGPSVFLFPPKPKDTLMISRTPEVTCVVVDVSQEDPEVQFNWYVDGVEVHNAKTKPREEQFNSTYRVVSVLTVLHQDWLNGKEYKCKVSNKGLPSSIEKTISKAKGQPREPQVCTLPPSQEEMTKNQVSLSCAVKGFYPSDIAVEWESNGQPENNYKTTPPVLDSDGSFFLVSRLTVDKSRWQEGNVFSCSVMHEALHNRFTQKSLSLSL light: QAVVTQESALTTSPGETVTLTCRSSTGAVTTSNYANWVQEKPDHLFTGLIGGTNKRAPGVPARFSGSLIGDKAALTITGAQTEDEAIYFCALWYSNLWVFGGGTKVEIKRTVAAPSVFIFPPSDEQLKSGTASVVCLLNNFYPREAKVQWKVDNALQSGNSQESVTEQDSKDSTYSLSSTLTLSKADYEKHKVYACEVTHQGLSSPVTKSFNRGEC | 99.3 | 91.6 | 95.1 | 95.6 | 102 | 100 | 95.1 | 100 |

Source: patent US20240400715A1 (VIBRANT PHARMA, published 2024)
